From article PMC4139162

Molecular target: KcsA potassium channel, L90C, chymotrypsin-truncated (UniProt P0A334)
Assay: crystal structure

stoichiometry N: 4
Substance: KcsA potassium channel, L90C, chymotrypsin-truncated (from UniProt P0A334 1-160) (natural protein)
